In publication PMC8980021:

Experiments:
[1] = biological target: ALPN-202 (davoceticept), variant CD80 IgV domain Fc fusion (human) (UniProt P33681); test: SPR; Biacore 3000, CM5 chip with goat anti-human IgG capture antibody; ALPN-202 (120 RU) or WT CD80 ECD-Fc (160 RU) captured; monomeric human CD28, CTLA-4, PD-L1 as analytes; 240 s association, 600 s dissociation, 30 uL/min; global 1:1 fit; for the weak interactions a minimal KD with theoretical Rmax fixed
[2] = biological target: wild type human CD80 extracellular domain Fc fusion (WT CD80 ECD-Fc) (human) (UniProt P33681); test: as above

Kd [1] | Kd [2] | Substance
0.0099 µM | > 2.6 µM | recombinant monomeric human CD28 (from UniProt P10747 19-152) (receptor)
– | > 37 µM | recombinant monomeric human PD-L1 (from UniProt Q9NZQ7 19-238) (ligand)
